Measured values: patent US20220119506A1 (NOVOBIND LIVESTOCK THERAPEUTICS, published 2022)
Positions count from the first letter of the chain named.

T1: VP28 (White spot syndrome virus)
T1 construct: Recombinant antigen; also called Coat protein VP28
T1 chain: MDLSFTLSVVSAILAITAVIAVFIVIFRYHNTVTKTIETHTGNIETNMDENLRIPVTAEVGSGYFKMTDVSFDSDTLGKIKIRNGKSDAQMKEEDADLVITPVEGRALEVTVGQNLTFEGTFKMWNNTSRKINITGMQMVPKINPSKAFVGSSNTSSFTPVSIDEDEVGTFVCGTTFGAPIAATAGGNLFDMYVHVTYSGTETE

T2: PirA (Vibrio parahaemolyticus)
T2 construct: also called JHE-like toxin PirA-like; vp19
T2 chain: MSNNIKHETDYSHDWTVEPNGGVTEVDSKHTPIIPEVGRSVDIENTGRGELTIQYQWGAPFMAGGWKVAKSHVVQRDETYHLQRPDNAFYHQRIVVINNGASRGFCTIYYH

B1: NBX0730 (VHH)
VHH: QVQLQESGGGLVQTGDSLRLACAASGRTFSSYPMAWYRQAPGQEREFVAGINRNGNIPVYADSVKGRFTISRDNAKNTVYLQMNNLKPEDTAVYYCAARTIYDSHYTSWGQGTQVTVSS
notes: on phage in the phage ELISA
B2: NBX0723 (VHH)
VHH: QVQLQESGGGLVQAGGSLRLSCAASGRTFSSYPMGWFRQAPGSEREQIAGISRSGVPGKYADSVSGRFTISRDNAKNTLYLQMNSLKPEDTAVYYCAARSIYSNNYSYWGQGTQVTVSS
notes: on phage in the phage ELISA
B3: NBX0724 (VHH)
VHH: B2 VHH with E6Q, P57S
notes: on phage in the phage ELISA
B4: NBX0725 (VHH)
VHH: B2 VHH with E6Q, A23T, S43K, V56N, S100Q
notes: on phage in the phage ELISA
B5: NBX0722 (VHH)
VHH: B2 VHH with A23R, S43K, V56D, D62A, S100Q
notes: on phage in the phage ELISA
B6: NBX0746 (VHH)
VHH: B2 VHH with P33A, Q39R, S43K, V56N, S100Q
notes: on phage in the phage ELISA
B7: NBX0745 (VHH)
VHH: B2 VHH with S43K, V56D, D62A, S100E
notes: on phage in the phage ELISA
B8: NBX0822 (VHH)
VHH: QVQLQESGGGLVRPGDSLTLSCTYSGQTFTNSGMAWFRQRPGKEREFVAAVSRSGLGRRYADSVRGRFTITRDNGKNTANLQMDSLKPEDTAVYSCAATTLDWGPRGPYRYWGQGTQVTVSS
notes: on phage in the phage ELISA
B9: NBX0825 (VHH)
VHH: QVQLQESGGGVVETGGSLSVSCVASGRTFSAYTMAWFRQSPGKEREFVASMSRGSAAYYTDSVRGRFAISRVGDKNTVHLQMRDLKPEDTAVYYCAGGSPGSSQIATPEAYTYWGQGTQVTVSA
notes: on phage in the phage ELISA
B10: NBX0813 (VHH)
VHH: QVQLQESGGGLVQAGGSLRLSCVVSGMLFSIRNMRWYRQAPGKQRELVAQIGSSGNTDYVESVKGRFTISRDNAKNTVYLQMNSLKPEDTAVYFCNALNYWGKGTLVTVSS
notes: on phage in the phage ELISA
B11: NBX0821 (VHH)
VHH: B10 VHH with S53T, N56A, E61G, K64E, A74P, K103E
notes: on phage in the phage ELISA
B12: NBX0817 (VHH)
VHH: QVQLQESGGGLVQAGGSLRLSCGASGGTNSNYAMGWFRQPPGKKREFVAALSWSGYNTHYADSVKGRFTISRPSARTVDLQMNNVKPEDTAVYYCAARLSGRTAGSRTYYAEGQYDYRGQGTQVTVSS
notes: on phage in the phage ELISA
B13: NBX0820 (VHH)
VHH: QVQLQESGGGLVQTGGSLRLSCAASGRTFSNYVIGWFRQAPGKEREFVAAVGRGINSAYHATHYSESVKDRFTTSRDNAKNTGFLQMNSLKTEDTAVYYCAVTSRWGQFDRTDFNSWGQGTQVTVSS
notes: on phage in the phage ELISA
B14: NBX0815 (VHH)
VHH: QVQLQESGGGLVQAGGSLRLSCAASGRTFSSYAMGWFRQSPGKDREFVAAVSWSGGSTYYADSLKGRFTISRDNAKNTVYLQMNSLKPEDTADYYCAAQRVMDYYRPRTESAYAYWGQGTRVTVSS
notes: on phage in the phage ELISA
B15: NBX0602 (VHH)
VHH: QVQLQESGGGLVQAGDSLRLSCAASGRTFSRYAMGWFRQAPGKEREFVAAVDWSGGSTAYADSVKGRFTISRDNAKNTVYLQMNSLKPDDTAVYYCAARARDVYGRAWYVEDSSTYDYWGQGTQVTVSS
notes: on phage in the phage ELISA
B16: NBX0824 (VHH)
VHH: QVQLQESGGGLVQAGGSLRLTCAASGRTLSSYLSSYAMGWFRQAPGKERESVATITWNGDRTLYADAVKGRFTISRDNAKNTVYLQMNSVIPEDTAVYYCAADTVGRWRSTLSVRDEYDYWGQGTQVTVAS
notes: on phage in the phage ELISA
B17: NBX0823 (VHH)
VHH: QVQLQQSGGGLVQTGGSLRLSCAASGSIFSIDFMGWYRQAPGNPREFVARIRGGNTYYADSVKGRFNISRDNAENTVYMQMNSLKSEDTAVYYCNAQITMRGGTWSTSEYWGQGTQVNVSS
notes: on phage in the phage ELISA

Target: T1, VP28
Assay: phage ELISA, antigen-coated wells

How did the “binding above PBS-coated wells” value turn out when B1 was run?
The value was no less than 50%.

Which “binding above PBS-coated wells” value does the source give for B2 here?
The value was no less than 50%.

B3 was tested. Which “binding above PBS-coated wells” value did it give?
Its value is no less than 50%.

For B4, which “binding above PBS-coated wells” value is on record?
Its value is no less than 50%.

B5 was tested. Which “binding above PBS-coated wells” value did it give?
Its value is no less than 50%.

Which “binding above PBS-coated wells” value does the source give for B6 here?
Its value is no less than 50%.

Which “binding above PBS-coated wells” value does the source give for B7 here?
The value was no less than 50%.

Target: T2, PirA
Assay: phage ELISA, antigen-coated wells

With B8 as the binder, how does the “binding above PBS-coated wells” value read?
Its value is no less than 50%.

For B9, which “binding above PBS-coated wells” value is on record?
The value was no less than 50%.

For B10, which “binding above PBS-coated wells” value is on record?
Its value is no less than 50%.

B11 was tested. Which “binding above PBS-coated wells” value did it give?
Its value is no less than 50%.

How did the “binding above PBS-coated wells” value turn out when B12 was run?
The value was no less than 50%.

How did the “binding above PBS-coated wells” value turn out when B13 was run?
Its value is no less than 50%.

Which “binding above PBS-coated wells” value does the source give for B14 here?
Its value is no less than 50%.

How did the “binding above PBS-coated wells” value turn out when B15 was run?
Its value is no less than 50%.

How did the “binding above PBS-coated wells” value turn out when B16 was run?
The value was no less than 50%.

With B17 as the binder, how does the “binding above PBS-coated wells” value read?
The value was no less than 50%.
